B1: X-linked retinitis pigmentosa GTPase regulator (Homo sapiens), Q92834 (parent)
chain: MREPEELMPDSGAVFTFGKSKFAENNPGKFWFKNDVPVHLSCGDEHSAVVTGNNKLYMFGSNNWGQLGLGSKSAISKPTCVKALKPEKVKLAACGRNHTLVSTEGGNVYATGGNNEGQLGLGDTEERNTFHVISFFTSEHKIKQLSAGSNTSAALTEDGRLFMWGDNSEGQIGLKNVSNVCVPQQVTIGKPVSWISCGYYHSAFVTTDGELYVFGEPENGKLGLPNQLLGNHRTPQLVSEIPEKVIQVACGGEHTVVLTENAVYTFGLGQFGQLGLGTFLFETSEPKVIENIRDQTISYISCGENHTALITDIGLMYTFGDGRHGKLGLGLENFTNHFIPTLCSNFLRFIVKLVACGGCHMVVFAAPHRGVAKEIEFDEINDTCLSVATFLPYSSLTSGNVLQRTLSARMRRRERERSPDSFSMRRTLPPIEGTLGLSACFLPNSVFPRCSERNLQESVLSEQDLMQPEEPDYLLDEMTKEAEIDNSSTVESLGETTDILNMTHIMSLNSNEKSLKLSPVQKQKKQQTIGELTQDTALTENDDSDEYEEMSEMKEGKACKQHVSQGIFMTQPATTIEAFSDEEVGNDTGQVGPQADTDGEGLQKEVYRHENNNGVDQLDAKEIEKESDGGHSQKESEAEEIDSEKETKLAEIAGMKDLREREKSTKKMSPFFGNLPDRGMNTESEENKDFVKKRESCKQDVIFDSERESVEKPDSYMEGASESQQGIADGFQQPEAIEFSSGEKEDDEVETDQNIRYGRKLIEQGNEKETKPIISKSMAKYDFKCDRLSEIPEEKEGAEDSKGNGIEEQEVEANEENVKVHGGRKEKTEILSDDLTDKAEDHEFSKTEELKLEDVDEEINAENVESKKKTVGDDESVPTGYHSKTEGAERTNDDSSAETIEKKEKANLEERAICEYNENPKGYMLDDADSSSLEILENSETTPSKDMKKTKKIFLFKRVPSINQKIVKNNNEPLPEIKSIGDQIILKSDNKDADQNHMSQNHQNIPPTNTERRSKSCTIL
partner: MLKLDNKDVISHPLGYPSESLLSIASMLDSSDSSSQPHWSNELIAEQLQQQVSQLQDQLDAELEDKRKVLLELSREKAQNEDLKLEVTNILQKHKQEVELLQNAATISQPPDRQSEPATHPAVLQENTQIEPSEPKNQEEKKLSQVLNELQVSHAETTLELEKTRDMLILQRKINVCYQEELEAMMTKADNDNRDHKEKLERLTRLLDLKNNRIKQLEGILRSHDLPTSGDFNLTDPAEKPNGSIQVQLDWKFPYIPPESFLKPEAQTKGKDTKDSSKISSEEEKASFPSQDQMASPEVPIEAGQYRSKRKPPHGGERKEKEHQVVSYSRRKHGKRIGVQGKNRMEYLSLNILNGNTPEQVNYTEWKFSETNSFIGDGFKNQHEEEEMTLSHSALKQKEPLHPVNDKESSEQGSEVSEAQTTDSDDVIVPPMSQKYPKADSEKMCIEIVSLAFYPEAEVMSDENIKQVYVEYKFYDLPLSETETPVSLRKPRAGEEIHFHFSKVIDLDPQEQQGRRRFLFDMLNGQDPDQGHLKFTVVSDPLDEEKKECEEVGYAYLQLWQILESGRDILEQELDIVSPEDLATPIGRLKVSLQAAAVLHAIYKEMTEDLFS
B2: Peripheral myelin protein 22 (Homo sapiens), Q01453 (parent)
chain: MLLLLLSIIVLHVAVLVLLFVSTIVSQWIVGNGHATDLWQNCSTSSSGNVHHCFSSSPNEWLQSVQATMILSIIFSILSLFLFFCQLFTLTKGGRFYITGIFQILAGLCVMSAAAIYTVRHPEWHLNSDYSYGFAYILAWVAFPLALLSGVIYVILRKRE
partner: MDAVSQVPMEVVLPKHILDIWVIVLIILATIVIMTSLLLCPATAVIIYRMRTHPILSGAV
B3: U4/U6 small nuclear ribonucleoprotein Prp3 (Homo sapiens), O43395 (parent)
chain: MALSKRELDELKPWIEKTVKRVLGFSEPTVVTAALNCVGKGMDKKKAADHLKPFLDDSTLRFVDKLFEAVEEGRSSRHSKSSSDRSRKRELKEVFGDDSEISKESSGVKKRRIPRFEEVEEEPEVIPGPPSESPGMLTKLQIKQMMEAATRQIEERKKQLSFISPPTPQPKTPSSSQPERLPIGNTIQPSQAATFMNDAIEKARKAAELQARIQAQLALKPGLIGNANMVGLANLHAMGIAPPKVELKDQTKPTPLILDEQGRTVDATGKEIELTHRMPTLKANIRAVKREQFKQQLKEKPSEDMESNTFFDPRVSIAPSQRQRRTFKFHDKGKFEKIAQRLRTKAQLEKLQAEISQAARKTGIHTSTRLALIAPKKELKEGDIPEIEWWDSYIIPNGFDLTEENPKREDYFGITNLVEHPAQLNPPVDNDTPVTLGVYLTKKEQKKLRRQTRREAQKELQEKVRLGLMPPPEPKVRISNLMRVLGTEAVQDPTKVEAHVRAQMAKRQKAHEEANAARKLTAEQRKVKKIKKLKEDISQGVHISVYRVRNLSNPAKKFKIEANAGQLYLTGVVVLHKDVNVVVVEGGPKAQKKFKRLMLHRIKWDEQTSNTKGDDDEESDEEAVKKTNKCVLVWEGTAKDRSFGEMKFKQCPTENMAREHFKKHGAEHYWDLALSESVLESTD
partner: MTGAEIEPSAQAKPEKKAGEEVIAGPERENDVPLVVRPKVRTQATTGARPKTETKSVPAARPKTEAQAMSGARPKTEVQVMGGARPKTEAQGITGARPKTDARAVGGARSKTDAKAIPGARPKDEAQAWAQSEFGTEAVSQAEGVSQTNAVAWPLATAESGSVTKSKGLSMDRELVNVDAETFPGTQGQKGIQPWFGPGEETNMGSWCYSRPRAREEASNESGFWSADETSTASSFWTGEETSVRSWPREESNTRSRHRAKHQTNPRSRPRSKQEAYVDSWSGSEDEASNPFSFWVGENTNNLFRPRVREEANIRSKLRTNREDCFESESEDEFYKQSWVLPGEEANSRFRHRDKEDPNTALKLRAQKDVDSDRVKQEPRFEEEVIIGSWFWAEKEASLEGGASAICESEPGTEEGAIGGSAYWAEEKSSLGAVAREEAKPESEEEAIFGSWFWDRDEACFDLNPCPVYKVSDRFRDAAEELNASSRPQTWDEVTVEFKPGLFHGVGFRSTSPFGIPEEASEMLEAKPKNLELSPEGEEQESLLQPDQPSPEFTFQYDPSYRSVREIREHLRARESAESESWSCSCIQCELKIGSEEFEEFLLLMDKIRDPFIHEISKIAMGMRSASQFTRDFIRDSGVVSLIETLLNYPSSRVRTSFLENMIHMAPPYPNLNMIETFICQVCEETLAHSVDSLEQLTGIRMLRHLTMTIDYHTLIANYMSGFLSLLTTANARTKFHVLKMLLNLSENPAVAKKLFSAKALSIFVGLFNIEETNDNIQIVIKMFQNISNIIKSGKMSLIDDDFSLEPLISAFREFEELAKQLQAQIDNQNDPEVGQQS
B4: EF-hand domain-containing protein 1 (Homo sapiens), Q5JVL4 (parent)
chain: MVSNPVHGLPFLPGTSFKDSTKTAFHRSQTLSYRNGYAIVRRPTVGIGGDRLQFNQLSQAELDELASKAPVLTYGQPKQAPPADFIPAHVAFDKKVLKFDAYFQEDVPMSTEEQYRIRQVNIYYYLEDDSMSVIEPVVENSGILQGKLIKRQRLAKNDRGDHYHWKDLNRGINITIYGKTFRVVDCDQFTQVFLESQGIELNPPEKMALDPYTELRKQPLRKYVTPSDFDQLKQFLTFDKQVLRFYAIWDDTDSMYGECRTYIIHYYLMDDTVEIREVHERNDGRDPFPLLMNRQRVPKVLVENAKNFPQCVLEISDQEVLEWYTAKDFIVGKSLTILGRTFFIYDCDPFTRRYYKEKFGITDLPRIDVSKREPPPVKQELPPYNGFGLVEDSAQNCFALIPKAPKKDVIKMLVNDNKVLRYLAVLESPIPEDKDRRFVFSYFLATDMISIFEPPVRNSGIIGGKYLGRTKVVKPYSTVDNPVYYGPSDFFIGAVIEVFGHRFIILDTDEYVLKYMESNAAQYSPEALASIQNHVRKREAPAPEAESKQTEKDPGVQELEALIDTIQKQLKDHSCKDNIREAFQIYDKEASGYVDRDMFFKICESLNVPVDDSLVKELIRMCSHGEGKINYYNFVRAFSN
partner: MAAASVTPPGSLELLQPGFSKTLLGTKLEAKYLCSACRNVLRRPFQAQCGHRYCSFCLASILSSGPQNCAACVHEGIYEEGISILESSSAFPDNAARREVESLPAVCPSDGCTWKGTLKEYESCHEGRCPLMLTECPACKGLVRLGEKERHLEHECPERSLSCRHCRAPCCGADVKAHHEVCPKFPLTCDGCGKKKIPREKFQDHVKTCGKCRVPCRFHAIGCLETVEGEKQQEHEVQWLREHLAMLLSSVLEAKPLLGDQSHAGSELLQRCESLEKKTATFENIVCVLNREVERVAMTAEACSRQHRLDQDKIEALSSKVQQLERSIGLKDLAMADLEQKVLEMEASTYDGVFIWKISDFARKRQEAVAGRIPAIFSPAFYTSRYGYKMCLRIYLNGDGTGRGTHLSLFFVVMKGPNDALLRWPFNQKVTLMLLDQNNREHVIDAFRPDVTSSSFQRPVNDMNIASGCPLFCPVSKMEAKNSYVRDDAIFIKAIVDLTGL

One assay covers variants of B1. The settings on record: with RPGRIP1, Q96KN7-4.
For Q184H, the “effect of a mutation on the interaction” value is “with no effect”.
Consider H98Q, for which the “effect of a mutation on the interaction” value is “disrupting interaction strength”.

A further assay covers variants of B2. The settings on record: with smim3_human SMIM3, Q9BZL3.
For the variant R157G, the “effect of a mutation on the interaction” value is given as “disrupting interaction strength”.

Another assay covers variants of B3. The settings on record: with gasp2_human GPRASP2, Q96D09.
Take P493S: the “effect of a mutation on the interaction” value is on record as “with no effect”.
On to A489D, for which the “effect of a mutation on the interaction” value is “with no effect”.
As to T494M, the “effect of a mutation on the interaction” value is listed as “with no effect”.

Variants of B4 are the subject of a further assay. The note with it: with traf2_human TRAF2, Q12933.
With R159W, the “effect of a mutation on the interaction” value is recorded as “with no effect”.
Consider R221H, for which the “effect of a mutation on the interaction” value was “disrupting interaction strength”.
As for P77T, the “effect of a mutation on the interaction” value is recorded as “disrupting interaction strength”.

(Values after IntAct's records for PubMed 25910212.)
